Consider 1 molecule from patent US20130101549A1 (Biogen, published 2013).

Assay [1] has as its target T1, murine LTβR-Ig (mouse, UniProt P50284 31-223).
T1 construct: Expressed and purified in house; also called mLTbR; murine LTBR-Ig
Nature of the assay: ELISA, muLTBR-Ig coated at 2 ug/ml, HRP goat anti-human kappa; the number is C of the printed 4-P fit (A 0.093, B 0.898, D 1.613, R^2 0.995); Fab-Light is BIIB71F10-132 by paragraph 502. As to the method: (§1) Human and murine ErbB2-Fc were obtained from R&D Systems. Wells of 96-well plates were coated with 2 ug/ml or 0.2 ug/ml of human or murine HER2-Fc by incubation overnight at 4-8° C. with either of these six proteins (80 ul/well of a 0.2 or 2 ug/ml solution in PBS). Wells were emptied, filled completely with a solution of PBS with 1% BSA (blocking buffer) and incubated at room temperature for 1 hour. Wells were emptied, washed twice PBS containing 0.05% Tween 20 (PBST) and filled with the samples (80 ul/well of 3× dilution series of the standard and supernatants in blocking buffer) prepared in another 96-well plate. After a 2-hour incubation at room temperature, the wells were emptied, washed three times with PBST and filled with a solution of HRP-conjugated goat pAbs anti-human kappa chain (80 ul/well of a 2000-fold dilution in blocking buffer). After 1-hour incubation, the wells were emptied and filled with a solution of HRP substrate prepared freshly. The color was left to develop for 3 minutes and was stopped by addition of an equal volume of 1N H₂SO₄. Absorbance was measured at 450 nm using a Plate Reader (SpectraMax, Molecular Devices). The data was processed and graphs were created using SoftMax Pro software.
(§2) Human and murine LTBR-Ig were expressed and purified in house.
In general terms: An ELISA detects its analyte on a solid surface through an enzyme-linked reagent.

The target in assay [2] is T2, human HER2-Fc (human, UniProt P04626 23-652).
T2 construct: Bought from R&D Systems: homodimeric fusion of the HER2 extracellular domain and human IgG1 Fc; also called human ErbB2-Fc; rhErbB2-Fc; not shown: Fc fragment of human IgG1
Nature of the assay: ELISA on coated HER2-Fc. As to the method:
as §1

The target of assay [3] is T3, IGFR-Ig (UniProt P08069 31-932).
T3 construct: not shown: Ig part not specified
Nature of the assay: ELISA on IGFR-Ig, dilutions of medium of transfected CHO cells; the linker version of the control fusion is not named on the sheet.

Assay [4] has as its target T4, human LTβR-Ig (human, UniProt P36941 31-227).
T4 construct: Expressed and purified in house; also called hLTbR-Ig; human LTBR-Ig
Nature of the assay: FACS (LTbR column of Table 2; format not told there).

The target of assay [5] is T4, human LTβR-Ig. Nature of the assay: ELISA, huLTBR-Ig coated at 2 ug/ml, HRP goat anti-human kappa; the number is C of the printed 4-P fit (A 0.025, B 0.807, D 1.574, R^2 0.998); Fab-Light is BIIB71F10-132 by paragraph 502. The procedure:
as §1, §2

By EC50 is commonly meant the concentration at which the effect is half-maximal. A higher EC50 goes with a less potent agent.

T4 sequence (P36941 31-227): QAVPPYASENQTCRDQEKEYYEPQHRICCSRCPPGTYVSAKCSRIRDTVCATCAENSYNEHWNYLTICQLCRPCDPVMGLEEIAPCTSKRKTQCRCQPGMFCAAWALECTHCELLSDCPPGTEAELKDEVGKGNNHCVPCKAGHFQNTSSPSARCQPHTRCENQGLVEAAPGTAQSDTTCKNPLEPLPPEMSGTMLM
T1 sequence (P50284 31-223): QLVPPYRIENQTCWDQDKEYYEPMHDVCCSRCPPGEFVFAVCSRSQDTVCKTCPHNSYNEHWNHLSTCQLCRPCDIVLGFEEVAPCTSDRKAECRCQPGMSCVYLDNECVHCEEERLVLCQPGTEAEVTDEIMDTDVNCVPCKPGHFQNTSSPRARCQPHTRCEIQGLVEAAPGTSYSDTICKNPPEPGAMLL

B1: 71F10 Fab-hLIGHT fusion with the (G4S)4 linker (BIIB71F10-132) (other)
heavy: EVQLLESGGGLVQPGGSLRLSCAASGFTFSSYGMVWVRQAPGKGLEWVSSISSSGGLTWYADSVKGRFTISRDNSKNTLYLQMNSLRAEDTAVYYCASPPGIAVARDYWGQGTLVTVSSASTKGPSVFPLAPSSKSTSGGTAALGCLVKDYFPEPVTVSWNSGALTSGVHTFPAVLQSSGLYSLSSVVTVPSSSLGTQTYICNVNHKPSNTKVDKKVEPKSCDKGGGGSGGGGSGGGGSGGGGSNPAAHLTGANSSLTGSGGPLLWETQLGLAFLRGLSYHDGALVVTKAGYYYIYSKVQLGGVGCPLGLASTITHGLYKRTPRYPEELELLVSQQSPCGRATSSSRVWWDSSFLGGVVHLEAGEEVVVRVLDERLVRLRDGTRSYFGAFMV
light: DIQMTQSPSSLSASVGDRVTITCRASQGISNYLAWYQQKPGKVPKLLIYAASTLQSGVPSRFSGSGSGTDFTLTISSLQPEDVATYYCQKYNSALLTFGGGTKVEIKRTVAAPSVFIFPPSDEQLKSGTASVVCLLNNFYPREAKVQWKVDNALQSGNSQESVTEQDSKDSTYSLSSTLTLSKADYEKHKVYACEVTHQGLSSPVTKSFNRGEC
notes: Trimer of Fab-LIGHT units; also called 71F10 Fab-(G4S)4-LIGHT
As to B1, the EC50 amounted to 3.57 ng/mL in assay [1], 0.05 nM in assay [2], 0.2 nM in assay [4] and 2.69 ng/mL in assay [5]. Also, the binding result in assay [3] is “no binding (tested: dilution 1.00 (undiluted medium))”.
